Target: the molecule itself
Assay: SEC; Superdex 75 Increase 10/300 GL; 20 mM Tris-HCl pH 7.5, 500 mM NaCl, 5% glycerol, 0.5 mM TCEP; 0.5 mL/min; BSA run for comparison; dimeric state in solution

B1: CPB CP (581–808), cryptic polo-box of Plk4 with the CP mutations (domain or fragment, human, UniProt O00444 581-808, looked up)
chain: GYQNRTLRSITSPLVAHRLKPIRQKTKKAVVSILDSEEVCVELVKEYASQEYVKEVLQISSDGNTITIYYPNGGRGFPLADRPPSPTDNISRYSFDNLPEKYWRKYQYASRFVQLVREKEPKIEYFDRYAKCILMENSPGADFEVWFYDGVKIHKTEDFIQVIEKTGKSYTLKSESEVNSLKEEIKMYMDHANEGHRICLALESIISEEERKTRSAPFFPIIIGRKPG
notes: PDB 6N46 is the His6-tagged form of the same limits; PDB 4N9J is the wild-type apo-CPB; also called CBP CP; source: E. coli Rosetta, purified (HisTrap, SEC, TEV cleavage, HisTrap and MBPTrap, SEC)
binding result: binds

Reference: paper PMC6823436, “Phase separation of Polo-like kinase 4 by autoactivation and clustering drives centriole biogenesis” (Nature Communications, 2019)
